According to article PMC3923129:

Target: sigmaA-RNAP holoenzyme (housekeeping RNA polymerase) (Bacillus subtilis) (UniProt P20429+P37870+P37871+P06224)
Experiment: EMSA

Chain of sigmaA-RNAP holoenzyme (housekeeping RNA polymerase) (Bacillus subtilis) (P20429 whole entry, chain 1 of 4): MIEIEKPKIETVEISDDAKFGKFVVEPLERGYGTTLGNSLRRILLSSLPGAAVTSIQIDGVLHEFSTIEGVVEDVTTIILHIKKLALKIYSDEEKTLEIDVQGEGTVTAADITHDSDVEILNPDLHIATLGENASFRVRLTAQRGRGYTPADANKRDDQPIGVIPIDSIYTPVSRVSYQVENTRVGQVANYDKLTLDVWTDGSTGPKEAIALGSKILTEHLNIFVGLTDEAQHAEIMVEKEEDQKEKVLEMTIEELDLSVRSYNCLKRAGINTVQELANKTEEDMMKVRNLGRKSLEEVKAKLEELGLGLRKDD
Chain of sigmaA-RNAP holoenzyme (housekeeping RNA polymerase) (Bacillus subtilis) (P37870 whole entry, chain 2 of 4): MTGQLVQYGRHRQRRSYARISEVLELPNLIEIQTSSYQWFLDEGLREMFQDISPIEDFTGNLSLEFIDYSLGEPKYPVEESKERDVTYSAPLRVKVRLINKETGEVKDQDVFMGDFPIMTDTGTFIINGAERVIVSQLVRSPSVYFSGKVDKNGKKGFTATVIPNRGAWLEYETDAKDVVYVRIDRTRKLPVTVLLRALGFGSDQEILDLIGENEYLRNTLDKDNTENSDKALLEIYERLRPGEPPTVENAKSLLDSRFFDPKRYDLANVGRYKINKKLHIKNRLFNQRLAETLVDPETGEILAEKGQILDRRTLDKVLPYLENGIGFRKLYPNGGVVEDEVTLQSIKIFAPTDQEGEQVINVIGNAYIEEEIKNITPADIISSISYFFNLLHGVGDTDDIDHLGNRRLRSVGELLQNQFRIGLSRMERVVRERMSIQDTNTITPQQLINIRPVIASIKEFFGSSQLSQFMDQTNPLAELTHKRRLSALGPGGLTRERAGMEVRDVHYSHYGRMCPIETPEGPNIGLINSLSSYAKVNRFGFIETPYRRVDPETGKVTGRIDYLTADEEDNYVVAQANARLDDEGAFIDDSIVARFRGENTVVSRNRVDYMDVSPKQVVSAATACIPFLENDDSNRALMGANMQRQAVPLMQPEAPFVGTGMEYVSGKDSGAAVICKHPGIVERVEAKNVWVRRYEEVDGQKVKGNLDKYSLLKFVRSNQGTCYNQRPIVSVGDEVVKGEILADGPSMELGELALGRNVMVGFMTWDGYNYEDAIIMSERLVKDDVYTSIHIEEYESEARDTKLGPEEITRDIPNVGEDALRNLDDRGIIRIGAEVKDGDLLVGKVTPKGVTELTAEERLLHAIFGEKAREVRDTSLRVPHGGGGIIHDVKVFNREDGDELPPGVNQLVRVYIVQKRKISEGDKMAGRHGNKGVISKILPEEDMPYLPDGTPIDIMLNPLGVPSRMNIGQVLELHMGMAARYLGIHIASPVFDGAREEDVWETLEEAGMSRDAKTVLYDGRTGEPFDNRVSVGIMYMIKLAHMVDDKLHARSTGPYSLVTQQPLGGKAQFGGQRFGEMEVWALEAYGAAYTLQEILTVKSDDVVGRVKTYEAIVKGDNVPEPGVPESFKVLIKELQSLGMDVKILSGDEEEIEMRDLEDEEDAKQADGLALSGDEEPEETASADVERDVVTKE
Chain of sigmaA-RNAP holoenzyme (housekeeping RNA polymerase) (Bacillus subtilis) (P37871 whole entry, chain 3 of 4): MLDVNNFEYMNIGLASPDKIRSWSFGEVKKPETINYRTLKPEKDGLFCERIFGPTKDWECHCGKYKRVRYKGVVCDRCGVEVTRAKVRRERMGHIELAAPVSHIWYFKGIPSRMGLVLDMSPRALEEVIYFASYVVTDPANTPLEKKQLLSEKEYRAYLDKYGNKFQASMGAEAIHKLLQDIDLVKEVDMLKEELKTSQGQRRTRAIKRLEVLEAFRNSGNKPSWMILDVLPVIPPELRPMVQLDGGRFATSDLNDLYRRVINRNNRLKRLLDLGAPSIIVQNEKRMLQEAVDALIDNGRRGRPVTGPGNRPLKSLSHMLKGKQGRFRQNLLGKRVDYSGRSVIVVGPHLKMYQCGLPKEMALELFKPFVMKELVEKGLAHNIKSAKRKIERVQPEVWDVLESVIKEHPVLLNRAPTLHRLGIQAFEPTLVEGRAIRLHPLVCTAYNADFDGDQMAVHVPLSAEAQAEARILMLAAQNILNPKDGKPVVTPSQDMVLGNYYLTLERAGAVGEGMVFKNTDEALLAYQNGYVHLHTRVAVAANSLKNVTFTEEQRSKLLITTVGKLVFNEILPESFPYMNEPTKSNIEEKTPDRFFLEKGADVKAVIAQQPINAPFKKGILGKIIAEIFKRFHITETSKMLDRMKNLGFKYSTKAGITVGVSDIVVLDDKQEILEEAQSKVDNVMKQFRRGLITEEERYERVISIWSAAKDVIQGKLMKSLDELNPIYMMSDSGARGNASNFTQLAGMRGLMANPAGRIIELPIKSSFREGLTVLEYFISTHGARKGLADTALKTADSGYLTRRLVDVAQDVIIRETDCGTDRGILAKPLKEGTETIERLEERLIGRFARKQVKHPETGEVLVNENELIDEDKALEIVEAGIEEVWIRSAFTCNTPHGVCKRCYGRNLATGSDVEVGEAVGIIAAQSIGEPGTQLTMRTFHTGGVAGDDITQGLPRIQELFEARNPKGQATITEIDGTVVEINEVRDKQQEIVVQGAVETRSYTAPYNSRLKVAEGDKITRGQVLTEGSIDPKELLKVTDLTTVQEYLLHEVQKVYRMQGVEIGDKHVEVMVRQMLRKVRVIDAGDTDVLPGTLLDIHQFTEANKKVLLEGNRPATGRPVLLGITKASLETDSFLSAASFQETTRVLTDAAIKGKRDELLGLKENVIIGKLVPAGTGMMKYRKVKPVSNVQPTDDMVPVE
Chain of sigmaA-RNAP holoenzyme (housekeeping RNA polymerase) (Bacillus subtilis) (P06224 whole entry, chain 4 of 4): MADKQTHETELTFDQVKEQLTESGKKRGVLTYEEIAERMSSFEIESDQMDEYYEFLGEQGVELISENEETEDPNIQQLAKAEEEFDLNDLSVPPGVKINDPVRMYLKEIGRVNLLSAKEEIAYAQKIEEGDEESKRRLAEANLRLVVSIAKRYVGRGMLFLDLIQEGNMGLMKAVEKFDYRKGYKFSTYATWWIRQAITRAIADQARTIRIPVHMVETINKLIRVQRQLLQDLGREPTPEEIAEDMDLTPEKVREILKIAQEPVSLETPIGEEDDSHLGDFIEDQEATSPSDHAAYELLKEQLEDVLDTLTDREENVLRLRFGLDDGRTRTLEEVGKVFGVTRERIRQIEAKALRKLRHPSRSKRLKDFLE

Substance | Kd [nM]
6S-1 RNA | 100
6S-2 RNA | 135
